Sequences and labels used below:
B1: LINE1-mini (parent)
chain: GGCAGAGCUCAACACAGCGUGGCAAAGUGGCUGUGGCUAGACUGCC

Variants of B1 are the subject of the data set. As to the kind of experiment: self-cleavage, relative activity (ratio to wild type); higher = more cleavage; in vitro, sequencing; the parent is a self-cleaving ribozyme.
With GGCAGAGCUCAACACAGCGUGGCAAAGUGGCUGUAGCUUGACUGCC [G35A A39U], the self-cleavage was 0.12.

For the variant GGCAGAGCUCAACACAGCGUGGCAAAGUGGCUGUAGCUCGACUGCC [G35A A39C], the self-cleavage came to 0.08.

As to GGCAGAGCUCAACACAGCGUGGCAAAGUGGCUGUAGCUGGACUGCC [G35A A39G], the self-cleavage stood at 0.07.

Regarding GGCAGAGCUCAACACAGCGUGGCAAAGUGGCUGUAGCUAGACUGCC [G35A], the self-cleavage stood at 0.16.

With GGCAGAGCUCAACACAGCGUGGCAAAGUGGCUGGGACUAGACUGCC [U34G G36A], the self-cleavage came out at 0.07.

Take GGCAGAGCUCAACACAGCGUGGCAAAGUGGCUGGGUCUAGACUGCC [U34G G36U]: the self-cleavage amounted to 0.11.

As to GGCAGAGCUCAACACAGCGUGGCAAAGUGGCUGGGCCUAGACUGCC [U34G G36C], the self-cleavage stood at 0.05.

GGCAGAGCUCAACACAGCGUGGCAAAGUGGCUGGGGUUAGACUGCC [U34G C37U]: the self-cleavage amounted to 0.1.

For the variant GGCAGAGCUCAACACAGCGUGGCAAAGUGGCUGGGGAUAGACUGCC [U34G C37A], the self-cleavage came to 0.06.

Turning to GGCAGAGCUCAACACAGCGUGGCAAAGUGGCUGGGGGUAGACUGCC [U34G C37G], the self-cleavage was 0.07.

For the variant GGCAGAGCUCAACACAGCGUGGCAAAGUGGCUGGGGCUAGACAGCC [U34G U43A], the self-cleavage was 0.21.

For GGCAGAGCUCAACACAGCGUGGCAAAGUGGCUGGGGCUAGACCGCC [U34G U43C], the self-cleavage turned out to be 0.07.

For GGCAGAGCUCAACACAGCGUGGCAAAGUGGCUGGGGCUAGACUACC [U34G G44A], the self-cleavage came out at 0.04.

Take GGCAGAGCUCAACACAGCGUGGCAAAGUGGCUGGGGCUAGACUCCC [U34G G44C]: the self-cleavage is 0.07.

For GGCAGAGCUCAACACAGCGUGGCAAAGUGGCUGGGGCUAGACUUCC [U34G G44U], the self-cleavage stood at 0.07.

As to GGCAGAGCUCAACACAGCGUGGCAAAGUGGCUGGGGCUAGACUGUC [U34G C45U], the self-cleavage came to 0.19.

Turning to GGCAGAGCUCAACACAGCGUGGCAAAGUGGCUGGGGCUAGACUGGC [U34G C45G], the self-cleavage stood at 0.13.

Take GGCAGAGCUCAACACAGCGUGGCAAAGUGGCUGGGGCUAGACUGAC [U34G C45A]: the self-cleavage came to 0.06.

As for GGCAGAGCUCAACACAGCGUGGCAAAGUGGCUGGGGCUAGACUGCG [U34G C46G], the self-cleavage is 0.14.

Consider GGCAGAGCUCAACACAGCGUGGCAAAGUGGCUGGGGCUAGACUGCU [U34G C46U], for which the self-cleavage came out at 0.19.

For the variant GGCAGAGCUCAACACAGCGUGGCAAAGUGGCUGGGGCUAGACUGCA [U34G C46A], the self-cleavage was found to be 0.18.

On to GGCAGAGCUCAACACAGCGUGGCAAAGUGGCUGUAGAUAGACUGCC [G35A C37A], for which the self-cleavage was 0.14.

With GGCAGAGCUCAACACAGCGUGGCAAAGUGGCUGUAGGUAGACUGCC [G35A C37G], the self-cleavage is 0.02.

GGCAGAGCUCAACACAGCGUGGCAAAGUGGCUGUAGUUAGACUGCC [G35A C37U]: the self-cleavage is 0.06.

As for GGCAGAGCUCAACACAGCGUGGCAAAGUGGCUGGGGCUAGAGUGCC [U34G C42G], the self-cleavage turned out to be 0.05.

In the case of GGCAGAGCUCAACACAGCGUGGCAAAGUGGCUGGGGCUAGAAUGCC [U34G C42A], the self-cleavage was 0.07.

For the variant GGCAGAGCUCAACACAGCGUGGCAAAGUGGCUGGGGCUAGAUUGCC [U34G C42U], the self-cleavage stood at 0.1.

Regarding GGCAGAGCUCAACACAGCGUGGCAAAGUGGCUGCGGCUAGACCGCC [U34C U43C], the self-cleavage turned out to be 0.04.

GGCAGAGCUCAACACAGCGUGGCAAAGUGGCUGCGGCUAGACAGCC [U34C U43A]: the self-cleavage turned out to be 0.11.

For the variant GGCAGAGCUCAACACAGCGUGGCAAAGUGGCUGCGGCUAGACGGCC [U34C U43G], the self-cleavage came to 0.31.

For GGCAGAGCUCAACACAGCGUGGCAAAGUGGCUGGGGCUAGCCUGCC [U34G A41C], the self-cleavage was 0.04.

For the variant GGCAGAGCUCAACACAGCGUGGCAAAGUGGCUGGGGCUAGUCUGCC [U34G A41U], the self-cleavage stood at 0.17.

As for GGCAGAGCUCAACACAGCGUGGCAAAGUGGCUGGGGCUAGGCUGCC [U34G A41G], the self-cleavage came out at 0.05.

As for GGCAGAGCUCAACACAGCGUGGCAAAGUGGCUGGGGCUGGACUGCC [U34G A39G], the self-cleavage came out at 0.07.

Take GGCAGAGCUCAACACAGCGUGGCAAAGUGGCUGGGGCUUGACUGCC [U34G A39U]: the self-cleavage was found to be 0.09.

In the case of GGCAGAGCUCAACACAGCGUGGCAAAGUGGCUGGGGCUCGACUGCC [U34G A39C], the self-cleavage is 0.05.

Consider GGCAGAGCUCAACACAGCGUGGCAAAGUGGCUGGGGCUAUACUGCC [U34G G40U], for which the self-cleavage was found to be 0.05.

Consider GGCAGAGCUCAACACAGCGUGGCAAAGUGGCUGGGGCUACACUGCC [U34G G40C], for which the self-cleavage was 0.07.

Turning to GGCAGAGCUCAACACAGCGUGGCAAAGUGGCUGGGGCUAAACUGCC [U34G G40A], the self-cleavage was determined as 0.03.

Consider GGCAGAGCUCAACACAGCGUGGCAAAGUGGCUGUAGCUAGACUGAC [G35A C45A], for which the self-cleavage worked out at 0.13.

GGCAGAGCUCAACACAGCGUGGCAAAGUGGCUGUAGCUAGACUGGC [G35A C45G]: the self-cleavage worked out at 0.13.

For the variant GGCAGAGCUCAACACAGCGUGGCAAAGUGGCUGCGGCCAGACUGCC [U34C U38C], the self-cleavage came to 0.07.

Turning to GGCAGAGCUCAACACAGCGUGGCAAAGUGGCUGCGGCGAGACUGCC [U34C U38G], the self-cleavage was found to be 0.06.

With GGCAGAGCUCAACACAGCGUGGCAAAGUGGCUGGGGCCAGACUGCC [U34G U38C], the self-cleavage was found to be 0.16.

Take GGCAGAGCUCAACACAGCGUGGCAAAGUGGCUGGGGCAAGACUGCC [U34G U38A]: the self-cleavage is 0.3.

Regarding GGCAGAGCUCAACACAGCGUGGCAAAGUGGCUGGGGCGAGACUGCC [U34G U38G], the self-cleavage was 0.03.

For GGCAGAGCUCAACACAGCGUGGCAAAGUGGCUGGGGCUAGACUGCC [U34G], the self-cleavage turned out to be 0.24.

With GGCAGAGCUCAACACAGCGUGGCAAAGUGGCUGGCGCUAGACUGCC [U34G G35C], the self-cleavage was 0.12.

Regarding GGCAGAGCUCAACACAGCGUGGCAAAGUGGCUGGUGCUAGACUGCC [U34G G35U], the self-cleavage turned out to be 0.07.

GGCAGAGCUCAACACAGCGUGGCAAAGUGGCUGGAGCUAGACUGCC [U34G G35A]: the self-cleavage is 0.06.

In the case of GGCAGAGCUCAACACAGCGUGGCAAAGUGGCUGUAGCUAGCCUGCC [G35A A41C], the self-cleavage is 0.04.

With GGCAGAGCUCAACACAGCGUGGCAAAGUGGCUGUAGCUAGGCUGCC [G35A A41G], the self-cleavage came out at 0.05.

In the case of GGCAGAGCUCAACACAGCGUGGCAAAGUGGCUGUAGCUAGUCUGCC [G35A A41U], the self-cleavage is 0.14.

For the variant GGCAGAGCUCAACACAGCGUGGCAAAGUGGCUGUAGCUAGAAUGCC [G35A C42A], the self-cleavage turned out to be 0.06.

For GGCAGAGCUCAACACAGCGUGGCAAAGUGGCUGUAGCUAGAGUGCC [G35A C42G], the self-cleavage amounted to 0.04.

With GGCAGAGCUCAACACAGCGUGGCAAAGUGGCUGUAGCUAGAUUGCC [G35A C42U], the self-cleavage was 0.09.

The values are drawn from the RNAGym collection of RNA variant scans (doi:10.7554/elife.90254).
